These results are taken from patent publication US5714144A, “Human tissue-type plasminogen activator variant” (Genentech, Inc., priority 1995, dated 1998).

Data set [1] in a line: Pharmacokinetics of unlabeled rt-PA in rabbits, immunoreactive t-PA by sandwich ELISA, i.v. bolus. Type of data set: in vivo. The note with it: for Microconstant K10: elimination from central compartment; for Microconstant K10 / Microconstant K12 / Microconstant K21: Table 3; for Microconstant K12 / Microconstant K21: equilibration with peripheral compartment. The method, then:
(§1) The unlabeled human tissue-type plasminogen activator was used as a carrier for the trace amount of labeled human tissue-type plasminogen activator in order to achieve therapeutic levels and to avoid alterations in the pharmacokinetics that could arise from concentration dependence in the clearance pathways. Serial arterial blood samples were collected over a 26 minute period and placed immediately into tubes containing a lyophilized mixture of D-phe-pro-arg-[…] (PPACK) and EDTA at final concentrations of 1 μM and 4.8 mM, respectively. The tubes were placed on ice and plasma was separated. Trichloroacetic acid (TGA) precipitable (intact human tissue-type plasminogen activator) and total radioactivity were measured in each plasma sample.
(§2) The following exponential equation was used: Cp=Ae^-αt +Be^-βt, where Cp is the concentration of rt-PA in the plasma at any time, t and A and B are the y intercepts of the fast and slow clearance phases which have slopes of α and β, respectively. The t1/2 for the α and β phases were calculated as the ratio: 1n2/slope. The results from the curve stripping procedure were used as initial approximations to fit the data to a biexponential model using PC NONLIN. One data set (FIG. 4) could not be fit using PC NONLIN so the data from the curve stripping procedure were used. Co, the plasma concentration at zero time, was the sum of A and B. Vo was calculated as dose divided by Co. Area under the curve (AUC) was determined by formula AUC=A/α+B/β. […] AUC was then used to calculate the clearance using the formula, Clearance=Dose/AUC. The relative contributions of the alpha and beta phases were calculated from the following formulas: [formula]
The data for Table 2 were fit to a model with direct elimination from the central compartment (K10) and equilibration with a peripheral compartment (K12 and K21).
(§3) Two types of data were generated from in vivo clearance studies in rabbits. One is from the immunoreactive human tissue-type plasminogen activator which should be a measure of the clearance of the unlabeled material. […] The curves of plasma concentration versus time from the immunoreactivity and the TGA precipitable counts were fit to the appropriate multiexponential models and the derived pharmacokinetic parameters were compared.
In general terms: In an ELISA, binding on a coated surface is turned into a signal by an enzyme label.

The nature of data set [2]: Pharmacokinetics of 125I labeled rt-PA in rabbits, trichloroacetic acid (TCA) precipitable radioactivity, i.v. bolus. It is filed as in vivo.
Excerpt: Arginine, 0.2M, and citrate, 0.1M, (pH 6.0) and Tween 80, 0.01 percent, was the buffer used at all times. All samples were dialyzed into this buffer prior to iodination. pH was adjusted to 8.2 with Tris base prior to iodination. The iodination mixture was passed across a PD-10 column (Pharmacia) equilibrated with pH 6.0 buffer, the radioactive fractions from the void volume were pooled, SDS-PAGE was run and the dried gel was autoradiographed.
as §1, §2, §3
The remaining modified forms of rt-PA were not available in quantities which would allow the pharmacokinetics to be characterized using the above techniques. Therefore the pharmacokinetic characteristics of these materials were determined following iodination.
The labeled rt-PA was always coinjected with 1 mg/kg of unmodified rt-PA. The rt-PA with high mannose oligosaccharide structures at all glycosylation sites, produced in the CHO 15B cell line, was also included in this experiment.

For data set [3] the following is noted: rabbits; cited from earlier work.
The conditions of data set [4]: humans; cited from earlier work.
Data set [5] concerns rat liver hepatocytes. The note with it: in vitro; cited from earlier work.
For data set [6] the following is noted: clinical trials; cited from earlier work.
In data set [7] the test system is liver. The note with it: in vivo; cited from earlier work.
The conditions of data set [8]: removal of sialic acid or chemical modification of carbohydrate; cited from earlier work.
Data set [9] concerns clot. Briefly: In vitro clot lysis assay (Collen et al.), fibrinolytic activity. Type of data set: biochemical. From the text: After reduction and carboxymethylation, 34.2 nmoles (expected number is 35) of carboxymethyl cysteine per nmole of rt-PA were recovered in the periodate-treated sample. […] However, with reduction and carboxymethylation,methionine recoveries increased to 3.3 and 2.8 nmoles for the periodate-treated and untreated materials respectively. […] There was no significant difference in recovery of the other amino acids between the periodate-treated and untreated rt-PA (data not shown). […] The specific activity of the periodate-treated PA was 91% that of the control rt-PA as measured by an in vitro clot lysis assay (Collen, D. et al., J. Clin. Path, 21:705-707 [1968]).

For data set [10] the following is noted: glycosylated versus deglycosylated; cited from earlier work.
The conditions of data set [11]: effect of monosaccharides, rats; cited from earlier work.
Data set [12] has as its system rat liver endothelial cells. The conditions noted are these: cited from earlier work.
The conditions of data set [13]: effect of PMSF titration of active site or coinjection of diisopropylfluorophosphate thrombin, asialoorosomucoid, macroalbumin or excess unlabeled t-PA; mice; cited from earlier work.
[14] abbreviates: immunoreactive rt-PA (IR), unlabeled, 1 mg/kg, n=4, Table 4.
Setting [15] is: unlabeled rt-PA, i.v. bolus, doses control 1.0, ENDO 0.83, periodate […], n=5, Table 3.
Setting [16] is: TCA precipitable radioactivity, labeled, 3.4 μCi/kg, n=4, Table 4.
Where [17] appears, read: labeled rt-PA 10 μCi/kg, coinjected with 1 mg/kg unmodified rt-PA, Table 5.

Values joined by “and” are separate entries in the source; they are usually repeats but may differ in a detail not shown here. Equal values may be shown once. Read-outs that look alike come from different tables or passages of the source.

Take “Control: wild type recombinant human tissue-type plasminogen activator (rt-PA)”: in data set [1] (unlabeled rt-PA), the “Microconstant K10” value came out at 227 min^-1 × 10^3, the “Microconstant K12” value turned out to be 35 min^-1 × 10^3 and the “Microconstant K21” value is 42 min^-1 × 10^3. For the same substance, in data set [1] (setting [14]), the “% AUCα” value is 81.5%, the “% AUCβ” value worked out at 18.5%, the Cl was determined as 5.51 mL/min/kg and the “T1/2 α” value amounted to 21.3 min. In addition, in [1] (setting [14]), the “T1/2 β” value is 3.05 min and the Vo amounted to 30.0 mL/kg. Moreover, in [1] (setting [15]), the Cl was 9.57 mL/min/kg, the “T1/2 α” value came out at 2.61 min and the “T1/2 β” value came to 19.6 min. Moreover, the “elimination of labeled versus unlabeled rt-PA” value in [2] (TCA precipitable counts versus immunoreactivity) is recorded as “cleared more slowly”. In addition, in [2] (setting [16]), the “% AUCα” value was 62.1%, the “% AUCβ” value worked out at 37.9%, the Cl was found to be 3.92 mL/min/kg and the “T1/2 α” value was found to be 30.3 min. Moreover, in data set [2] (setting [16]), the “T1/2 β” value is 3.36 min and the Vo stood at 27.7 mL/kg. Besides, in data set [2] (setting [17]), the “% AUCα” value amounted to 52%, the “% AUCβ” value amounted to 48%, the Cl worked out at 5.72 mL/min/kg and the “T1/2 α” value stood at 2.55 min. Also, in [2] (setting [17]), the “T1/2 β” value is 14.9 min and the Vo worked out at 31.5 mL/kg. Further, the “alpha phase half life” value in [3] is on record as “about 2 min”. The “alpha phase half life” value in data set [4] is 4 min and 6 min. For the same substance, the binding affinity result in data set [5] is listed as “bind with high affinity to rat liver hepatocytes”. In data set [6], the “effect on fibrinogen levels in the blood” value is reported as “minimal effects on fibrinogen levels in the blood” and the thrombolytic efficacy result is given as “extremely effective thrombolytic agent”. Further, in data set [7], the “site of uptake and metabolism” value was “The liver is the most significant site of t-PA uptake and metabolism”.

For “transferrin: transferrin, serum glycoprotein, after removal of sialic acid”, the half-life change result in data set [8] was “no significant effect on half-life”.

Consider Periodate, for which, in data set [1] (FIG. 4, unlabeled), the “elimination” value is reported as “slow the elimination of rt-PA”. Also, in data set [1] (unlabeled rt-PA), the “Microconstant K10” value is 63 min^-1 × 10^3, the “Microconstant K12” value is reported as 72 min^-1 × 10^3 and the “Microconstant K21” value came to 54 min^-1 × 10^3. Moreover, in data set [1] (unlabeled), the “Vo, difference versus control” value is on record as “no significant differences”; the “fold slower rate of clearance than control rt-PA” value is reported as 2.7 fold; the “t1/2 alpha, change versus control” value is recorded as “significant increase”; the “t1/2 beta, difference versus control” value is given as “no significant differences”. Moreover, in [1] (setting [15]), the Cl amounted to 3.53 mL/min/kg, the “T1/2 α” value worked out at 4.22 min and the “T1/2 β” value was found to be 37.5 min. Further, in data set [2] (labeled), the “rate of clearance versus control” value is “smaller rates of clearance than the control rt-PA”; the “relative size of alpha and beta phase” value was “the dominant change in the elimination pattern of the Endo-H and Periodate treated rt-PA again appears to be in the relative size of the alpha and beta phase”. Besides, in [2] (setting [17]), the “% AUCα” value is on record as 32%, the “% AUCβ” value amounted to 68%, the Cl came out at 2.74 mL/min/kg and the “T1/2 α” value is recorded as 3.30 min. Also, in data set [2] (setting [17]), the “T1/2 β” value worked out at 30.3 min and the Vo worked out at 32.6 mL/kg. Further, in [9] (in vitro clot lysis assay, % of control rt-PA), the “specific activity relative to control rt-PA” value was found to be 91%. Further, in data set [9] (in vitro clot lysis, versus untreated control), the fibrinolytic activity result was “did not alter the activity of the rt-PA significantly”.

Take “deglycosylated human tissue-type plasminogen activator: deglycosylated human tissue-type plasminogen activator (Larsen et al.)”: the “in vivo clearance rate” value in data set [10] was “not significantly different”.

As for “melanoma-derived t-PA: t-PA isolated from melanoma cell line”, the clearance result in data set [11] is recorded as “unaffected by monosaccharides”. For the same substance, the uptake entry in data set [12] is listed as “a pathway that could be inhibited by high mannose glycoproteins”. In data set [13], the elimination result is “unaffected”.

In the case of urokinase, the half-life change entry in data set [8] is “extending the half-life”.
